In the Human Domainome abundance scans (Beltran et al. 2025):
± gives the uncertainty stated by the source.

B1: Far upstream element-binding protein 3, residues 75 to 150; numbered along this chain, Q96I24 (parent)
chain: RTVITEEFKVPDKMVGFIIGRGGEQISRIQAESGCKIQIASESSGIPERPCVLTGTPESIEQAKRLLGQIVDRCRN

Variants of: B1
Assay: abundance fitness (aPCA) (normalised: wild type 0, dead -1); higher = more abundant; growth selection in yeast, the domain comes from the species named
Settings: Homo sapiens

Abundance fitness, by site and new letter:
E61: S -0.026 ± 0.035; P -0.553 ± 0.044; C -0.078 ± 0.042; K -0.026 ± 0.041; G -0.017 ± 0.027; T -0.009 ± 0.039; A -0.037 ± 0.032; W -0.111 ± 0.036; L -0.082 ± 0.031; D 0.027 ± 0.044; H -0.031 ± 0.06; I -0.105 ± 0.055; V -0.046 ± 0.03; F -0.035 ± 0.056; R -0.046 ± 0.028; Q -0.018 ± 0.045; N -0.064 ± 0.051
T56: G -0.232 ± 0.025; C -0.097 ± 0.04; L -0.138 ± 0.031; R -0.107 ± 0.027; Q -0.127 ± 0.037; K -0.166 ± 0.04; N -0.105 ± 0.055; W -0.332 ± 0.033; Y -0.049 ± 0.05; P -0.094 ± 0.036; H -0.106 ± 0.051; S -0.013 ± 0.031; E -0.08 ± 0.032; I -0.225 ± 0.059; A -0.086 ± 0.032; M -0.183 ± 0.038
K64: R -0.095 ± 0.026; G -0.658 ± 0.032; W -0.578 ± 0.038; Q -0.197 ± 0.039; Y -0.505 ± 0.062; D -0.89 ± 0.071; P -1.14 ± 0.075; I -0.275 ± 0.064; E -0.388 ± 0.038; S -0.416 ± 0.032; T -0.285 ± 0.035; V -0.35 ± 0.031; H -0.421 ± 0.058; F -0.801 ± 0.079; C -0.453 ± 0.044; M -0.336 ± 0.042; L -0.491 ± 0.031; A -0.429 ± 0.031
E58: T -0.003 ± 0.048; K 0.045 ± 0.073; I -0.256 ± 0.082; S -0.05 ± 0.039; M -0.128 ± 0.051; W -0.161 ± 0.04; Q -0.066 ± 0.044; L -0.17 ± 0.038; D -0.054 ± 0.062; R -0.086 ± 0.031; N -0.091 ± 0.093; V -0.107 ± 0.036; G -0.047 ± 0.03; A -0.025 ± 0.04; P -0.108 ± 0.046; F -0.124 ± 0.086; H -0.226 ± 0.087
I60: Y -1 ± 0.12; N -0.182 ± 0.07; K -0.767 ± 0.065; C -0.088 ± 0.048; G -0.988 ± 0.038; D -0.972 ± 0.082; Q -0.806 ± 0.062; H -0.631 ± 0.071; F -0.754 ± 0.076; A -0.542 ± 0.037; P -1.1 ± 0.089; T -0.223 ± 0.043; V -0.025 ± 0.03; M -0.343 ± 0.046; S -0.836 ± 0.055; L -0.119 ± 0.033; R -0.21 ± 0.028; E -0.877 ± 0.058; W -0.995 ± 0.059
R65: D -0.031 ± 0.057; E 0.013 ± 0.034; F 0.017 ± 0.058; A -0.031 ± 0.033; C -0.092 ± 0.043
S59: D -0.1 ± 0.058; Y -0.675 ± 0.077; L -0.797 ± 0.047; E -0.04 ± 0.043; G -0.065 ± 0.028; F -1.1 ± 0.26; I -0.621 ± 0.13; W -0.999 ± 0.061; P -0.866 ± 0.067; M -0.152 ± 0.044; K -0.161 ± 0.058; H -0.221 ± 0.062; Q -0.014 ± 0.043; R -0.141 ± 0.028; V -0.284 ± 0.035; A -0.045 ± 0.032; N -0.013 ± 0.082; C -0.146 ± 0.047; T -0.119 ± 0.046
P57: R -0.013 ± 0.031; K -0.009 ± 0.056; G -0.113 ± 0.032; S -0.109 ± 0.042; T 0.006 ± 0.048; A -0.013 ± 0.038; N -0.1 ± 0.082; F -0.103 ± 0.081; W -0.073 ± 0.04; Q -0.023 ± 0.049; L -0.112 ± 0.04; V -0.06 ± 0.037; M -0.111 ± 0.057; Y -0.133 ± 0.1; D -0.182 ± 0.055; C -0.143 ± 0.054; I -0.131 ± 0.1; E -0.045 ± 0.045; H -0.096 ± 0.08
Q62: W -0.102 ± 0.044; R -0.043 ± 0.03; L -0.044 ± 0.03; K -0.019 ± 0.043; A -0.01 ± 0.033; M -0.023 ± 0.042; N -0.041 ± 0.038; V -0.008 ± 0.033; G -0.055 ± 0.035; I -0.043 ± 0.037; Y -0.096 ± 0.044; H -0.011 ± 0.037; C -0.011 ± 0.033; F -0.043 ± 0.038; D -0.005 ± 0.04; S -0.023 ± 0.03
G55: Y -1.28 ± 0.17; W -1.34 ± 0.076; V -1.38 ± 0.066
A63: T -0.412 ± 0.041; M -0.292 ± 0.041; V -0.31 ± 0.031; R -1.22 ± 0.048; F -0.427 ± 0.07; C -0.03 ± 0.043; K -0.968 ± 0.086; I -0.457 ± 0.087; Q -0.907 ± 0.063; Y -1.59 ± 0.33; E -0.831 ± 0.047; W -1.25 ± 0.064; L -0.746 ± 0.037; G -0.065 ± 0.025; S -0.401 ± 0.036; H -0.911 ± 0.1; P -0.986 ± 0.062; N -1.25 ± 0.2
